Measured values: PMC5038981 (DNA repair, 2015)

Biological target: T1, GST-tagged Rad27 (S. cerevisiae, UniProt P26793 1-382)
T1 sequence (looked up): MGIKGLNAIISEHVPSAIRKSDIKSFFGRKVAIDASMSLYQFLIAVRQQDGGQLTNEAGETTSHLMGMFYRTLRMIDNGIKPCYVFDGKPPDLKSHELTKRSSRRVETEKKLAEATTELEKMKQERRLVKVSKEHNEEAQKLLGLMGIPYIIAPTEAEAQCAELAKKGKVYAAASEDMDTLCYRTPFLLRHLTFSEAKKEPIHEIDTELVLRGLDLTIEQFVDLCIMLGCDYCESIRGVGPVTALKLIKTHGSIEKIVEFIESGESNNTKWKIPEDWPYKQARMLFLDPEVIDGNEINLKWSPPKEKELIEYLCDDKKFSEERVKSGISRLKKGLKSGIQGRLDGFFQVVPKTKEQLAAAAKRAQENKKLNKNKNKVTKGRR
Assay: pull-down

B1: his-tagged Nej1 C-terminal fragment (residues 129-343) (domain or fragment, S. cerevisiae, UniProt Q06148 129-342, looked up)
chain: MFYMILQSLCMLLLKLVNLSTQYHYVQRDILNEKQKCLDFLLISLRDLDGGSKVISQWAPENSKNYESLQQCTDDDIIKKLLHKGKFQHQEFLADSLKTLLSLRNKFQDVSRFEESGELNKKERVRFPAVNHFYNDDFELQADPTNEARPNSRGKIKPKTDFKPKSRESSTSSQLRLENFSESEATPEKTKSSSSLVEEYPQKKRKFGKVRIKN
- binding result: binds
